The target in this test is Rabenosyn-5 (as printed for the GST pull-down of Figure 7). In words: pull-down; GST-effector fusion protein on glutathione-Sepharose beads incubated with clarified lysate of transfected cells for 1 h at 4 °C; lysis buffer 20 mM Hepes pH 7.4, 100 mM NaCl, 5 mM MgCl2, 0.1% NP40, 10% glycerol, 1 mM DTT; washed 3 times with PBS-T (1% Triton X-100); immunoblot with anti-Myc or anti-Rab antibody, bands quantified with LI-COR Odyssey. Background: A western blot detects proteins with antibodies after separation by electrophoresis.

As for “Rab22 (from UniProt Q9UL26 1-194) (natural protein)”, the fold binding to Rabenosyn-5 relative to EEA1 lay in the range of 2 to 3 fold.

For the origin of these results see PMC9403361.
